Results as given in patent US20200270365A1 (JIANGSU HENGRUI MEDICINE, published 2020).

What was measured:
[1] = target: T1, PCSK9 protein inserted with biotin receiving peptide BP15 and His-tag: PCSK9-BP15-His6 (human, UniProt Q8NBP7 153-692; A8T644 31-152, biotin on the BP15 biotin receiving peptide (labeled during the expression)); test: ELISA, biotin PCSK9 on streptavidin plate
T1 construct: also called WT PCSK9; PCSK9 WT
Procedure: The binding ability of anti-PCSK9 antibodies of the present invention to PCSK9 protein (WT PCSK9, SEQ ID NO: 5) was detected by measuring the amounts of antibodies binding to PCSK9 immobilized on the ELISA plate.
(§1) Streptavidin (sigma, CAT #S4762) was diluted to 2 μg/ml with PBS and was added into a 96-well ELISA plate, at 4° C. for overnight. The plate was washed and then was blocked with Tris buffer (including 0.9 mM CaCl₂, 0.05% Tween 20 and 5% skim milk) at 37° C. for 2 hours. Then the plate was washed again and 100 μl/well of biotin-labeled PCSK9 (produced in-house, diluted with Tris buffer containing 0.9 mM CaCl₂, 0.05% Tween 20 and 1% skim milk) was added and incubated at 37° C. for 1 hour. After the wash step various concentrations of diluted PCSK9 antibody samples was added to the plate and incubated at 37° C. for 1 hour. […] Then the plate was washed and tetramethyl brenzidine solution was added for development. Finally, the stop buffer was added and the OD450 value was measured on the Microplate reader, and then EC50 was calculated.

[2] = target: T2, PCSK9 D374Y mutant protein inserted with biotin receiving peptide BP15 and His-tag: PCSK9-D374Y-BP15-His6 (human, UniProt Q8NBP7 153-692; A8T644 31-152, biotin on the BP15 biotin receiving peptide); test: ELISA, biotin PCSK9-Y on streptavidin plate
T2 construct: also called PCSK9-Y; mutant PCSK9
Procedure: The binding ability of anti-PCSK9 antibodies of the present invention to PCSK9-Y protein (mutant PCSK9, SEQ ID NO: 6) was detected by measuring the amounts of antibodies binding to PCSK9-Y immobilized on the ELISA plate.
as §1, with “hours. The” for “hours. Then the”, “washed” for “washed again”, “biotin-labeled PCSK9-Y” for “biotin-labeled PCSK9”, “wash step,” for “wash step”, “samples were” for “samples was”

[3] = target: T1, PCSK9 protein inserted with biotin …; test: competition ELISA, LDLR-FC coated, biotin PCSK9 + antibody
Procedure: The blocking ability of PCSK9 antibodies according to the present invention for the binding of LDLR-FC (produced in-house, with sequence of SEQ ID NO: 8) and PCSK9 (SEQ ID NO: 5) was tested by measuring the amount of PCSK9 binding to LDLR in the presence of the antibodies.
(§2) LDLR-FC was diluted to 5 μg/ml with phosphate buffer and was added into the 96-well ELISA plate, kept at 4° C. overnight. The plate was washed and then blocked with Tris buffer (including 0.9 mM CaCl₂, 0.05% Tween 20 and 5% skim milk) at 37° C. for 2 hours. Then the plate was washed and 100 μl/well of mixture of biotin-labeled PCSK9 (diluted to 2 μg/ml with Tris buffer containing 0.9 mM CaCl₂, 0.05% Tween 20 and 1% skim milk) and antibody samples (diluted with Tris buffer containing 0.9 mM CaCl₂, 0.05% Tween 20 and 1% skim milk) was added and incubated at 37° C. for 1 hour. Then the plate was washed again and horseradish peroxidase-streptavidin (sigma, CAT #S2438) was added and incubated at 37° C. for 1 hour. Then the plate was washed and tetramethyl brenzidine solution was added for development. Finally, the stop buffer was added and OD450 value was measured on the Microplate reader, then IC50 value was calculated.

[4] = target: T2, PCSK9 D374Y mutant protein inserted …; test: competition ELISA, LDLR-FC coated, biotin PCSK9-Y + antibody
Procedure: The blocking ability of PCSK9 antibodies according to the present invention for the binding of LDLR-FC and PCSK9-Y (mutant PCSK9, SEQ ID NO: 6) was tested by measuring the amount of PCSK9-Y binding to LDLR in the presence of the antibodies.
as §2, with “LDLR-FC (produced in-house, with sequence of SEQ ID NO: 8)” for “LDLR-FC”, “to 2” for “to 5”, “plate,” for “plate, kept”, “biotin-labeled mutant” for “biotin-labeled”, “to 1” for “to 2”

B1: h011-3133 (antibody, V domains shown)
VH: QVQLVQSGAEVKKPGASVKVSCKASGYTFTGYEIHWVRQAPGQGLEWMGYINPSATYTKFNQKFKDRVTMTRDTSISTAYMELSRLRSDDTAVYYCARERIYSNYWFFDVWGQGTTVTVSS
VL: DIVMTQSPSSLSASVGDRVTITCKASQNVYTAVAWYQQKPGKSPKLLIYSASNRYTGVPSRFSGSGSGTDFTLTISSLQPEDFATYFCQQYSSYPYTFGGGTKVEIK
- EC50 [1]: 0.00435 µg/mL
- EC50 [2]: 0.00492 µg/mL
- IC50 [3]: 0.495 µg/mL
- IC50 [4]: 0.175 µg/mL

B2: h011-3191 (antibody, V domains shown)
VH: QVQLVQSGAEVKKPGASVKVSCKASGYTFTGYTIHWVRQAPGQGLEWMGYIVPSSTYTKFNQKFKDRVTMTRDTSISTAYMELSRLRSDDTAVYYCARERIYSNYWFFDVWGQGTTVTVSS
VL: DIVMTQSPSSLSASVGDRVTITCKASQNVYTAVAWYQQKPGKSPKLLIYSASNRYTGVPSRFSGSGSGTDFTLTISSLQPEDFATYFCQQYSSYPYTFGGGTKVEIK
- EC50 [1]: 0.00631 µg/mL
- EC50 [2]: 0.0066 µg/mL
- IC50 [3]: 0.74 µg/mL
- IC50 [4]: 0.226 µg/mL

B3: h011-3181 (antibody, V domains shown)
VH: QVQLVQSGAEVKKPGASVKVSCKASGYTFTGYTIHWVRQAPGQGLEWMGYINPSSTYTKFNQKFKDRVTMTRDTSISTAYMELSRLRSDDTAVYYCARERIYSNYWFFDVWGQGTTVTVSS
VL: DIVMTQSPSSLSASVGDRVTITCKASQNVYTAVAWYQQKPGKSPKLLIYSASNRYTGVPSRFSGSGSGTDFTLTISSLQPEDFATYFCQQLSSYPDTFGGGTKVEIK
- EC50 [1]: 0.00221 µg/mL
- EC50 [2]: 0.00678 µg/mL
- IC50 [3]: 0.857 µg/mL
- IC50 [4]: 0.233 µg/mL

B4: h011-3174 (antibody, V domains shown)
VH: QVQLVQSGAEVKKPGASVKVSCKASGYTFTGYTIHWVRQAPGQGLEWMGYINPSSTYTKFNQKFKDRVTMTRDTSISTAYMELSRLRSDDTAVYYCARERIFSNYWFFDVWGQGTTVTVSS
VL: DIVMTQSPSSLSASVGDRVTITCKASQNVYTAVAWYQQKPGKSPKLLIYQASNRYTGVPSRFSGSGSGTDFTLTISSLQPEDFATYFCQQYSSYPYTFGGGTKVEIK
- EC50 [1]: 0.00529 µg/mL
- EC50 [2]: 0.0112 µg/mL
- IC50 [3]: 1.67 µg/mL
- IC50 [4]: 0.23 µg/mL

B5: h011-3193 (antibody, V domains shown)
VH: QVQLVQSGAEVKKPGASVKVSCKASGYTFTGYTIHWVRQAPGQGLEWMGYINPSSTYTKFNQKFKDRVTMTRDTSISTAYMELSRLRSDDTAVYYCARERIYSNYWFFDVWGQGTTVTVSS
VL: DIVMTQSPSSLSASVGDRVTITCKASQNVYTAVDWYQQKPGKSPKLLIYSASNRYTGVPSRFSGSGSGTDFTLTISSLQPEDFATYFCQQYSSYPYTFGGGTKVEIK
- EC50 [1]: 0.0047 µg/mL
- EC50 [2]: 0.0221 µg/mL
- IC50 [3]: 0.621 µg/mL
- IC50 [4]: 0.871 µg/mL

B6: h011-3147 (antibody, V domains shown)
VH: QVQLVQSGAEVKKPGASVKVSCKASGYTFTGYTIHWVRQAPGQGLEWMGEIIPSSTYTKFNQKFKDRVTMTRDTSISTAYMELSRLRSDDTAVYYCARERIYSNYWFFDVWGQGTTVTVSS
VL: DIVMTQSPSSLSASVGDRVTITCKASQNVYTAVAWYQQKPGKSPKLLIYSASNRYTGVPSRFSGSGSGTDFTLTISSLQPEDFATYFCQQYSSYPYTFGGGTKVEIK
- EC50 [1]: 0.00483 µg/mL
- EC50 [2]: 0.00668 µg/mL
- IC50 [3]: 0.567 µg/mL
- IC50 [4]: 0.173 µg/mL

B7: h011-3187 (antibody, V domains shown)
VH: QVQLVQSGAEVKKPGASVKVSCKASGYTFTGYTIHWVRQAPGQGLEWMGYINPSSTYTKFNQKFKDRVTMTRDTSISTAYMELSRLRSDDTAVYYCARERIYSNYWFFDVWGQGTTVTVSS
VL: DIVMTQSPSSLSASVGDRVTITCKASQNVYTAVAWYQQKPGKSPKLLIYSASNRYTGVPSRFSGSGSGTDFTLTISSLQPEDFATYFCQQLSSSPETFGGGTKVEIK
- EC50 [1]: 0.0045 µg/mL
- EC50 [2]: 0.00704 µg/mL
- IC50 [3]: 0.666 µg/mL
- IC50 [4]: 0.156 µg/mL

B8: h011-3192 (antibody, V domains shown)
VH: QVQLVQSGAEVKKPGASVKVSCKASGYTFTGYTIHWVRQAPGQGLEWMGYINPSSTYTKFNQKFKDRVTMTRDTSISTAYMELSRLRSDDTAVYYCARERIYSNYWFFDVWGQGTTVTVSS
VL: DIVMTQSPSSLSASVGDRVTITCKASQNVYTEVAWYQQKPGKSPKLLIYSASNRYTGVPSRFSGSGSGTDFTLTISSLQPEDFATYFCQQYSSYPYTFGGGTKVEIK
- EC50 [1]: 0.00664 µg/mL
- EC50 [2]: 0.127 µg/mL
- IC50 [3]: 0.698 µg/mL
- IC50 [4]: 2.36 µg/mL

B9: h011-3194 (antibody, V domains shown)
VH: QVQLVQSGAEVKKPGASVKVSCKASGYTFTGYTIHWVRQAPGQGLEWMGYINPSSTYTKFNQKFKDRVTMTRDTSISTAYMELSRLRSDDTAVYYCARERIYSNYWFFDVWGQGTTVTVSS
VL: DIVMTQSPSSLSASVGDRVTITCKASQNVYTAVAWYQQKPGKSPKLLIYSASNRYTGVPSRFSGSGSGTDFTLTISSLQPEDFATYFCQQLSSYPYTFGGGTKVEIK
- EC50 [1]: 0.00469 µg/mL
- EC50 [2]: 0.0169 µg/mL
- IC50 [3]: 0.628 µg/mL
- IC50 [4]: 0.579 µg/mL

B10: h011-3195 (antibody, V domains shown)
VH: QVQLVQSGAEVKKPGASVKVSCKASGYTFTGYTIHWVRQAPGQGLEWMGYINPSSTYTKFNQKFKDRVTMTRDTSISTAYMELSRLRSDDTAVYYCARERIFSNYWFFDVWGQGTTVTVSS
VL: DIVMTQSPSSLSASVGDRVTITCKASQNVYTAVAWYQQKPGKSPKLLIYSASNRYTGVPSRFSGSGSGTDFTLTISSLQPEDFATYFCQQYSSYPYTFGGGTKVEIK
- EC50 [1]: 0.00679 µg/mL
- EC50 [2]: 0.0218 µg/mL
- IC50 [3]: 2.25 µg/mL
- IC50 [4]: 0.689 µg/mL

B11: h011-3190 (antibody, V domains shown)
VH: QVQLVQSGAEVKKPGASVKVSCKASGYTFTGYTIHWVRQAPGQGLEWMGEINPSSTYTKFNQKFKDRVTMTRDTSISTAYMELSRLRSDDTAVYYCARERIYSNYWFFDVWGQGTTVTVSS
VL: DIVMTQSPSSLSASVGDRVTITCKASQNVYTAVAWYQQKPGKSPKLLIYSASNRYTGVPSRFSGSGSGTDFTLTISSLQPEDFATYFCQQYSSYPYTFGGGTKVEIK
- EC50 [1]: 0.005 µg/mL
- EC50 [2]: 0.00478 µg/mL
- IC50 [3]: 0.837 µg/mL
- IC50 [4]: 0.222 µg/mL
